Measurements: patent US20240279344A1 (CDR LIFE, published 2024)
Values joined by “and” are separate entries in the source; they are usually repeats but may differ in a detail not shown here. Equal values may be shown once.

B1: M1116 (bispecific antibody, V domains shown)
VH: EVQLLESGGGSVQPGGSLRLSCTVSGFSLSNYAMSWVRQAPGKGLEWIGIVSSGGTTYYASWAKGRFTISKDTSKNTVYLQMNSLRAEDTASYYCAKDLYYGPTTYSAANLWGQGTSVTVSS
VL: SYELTQPPSVSVSPGQTASITCTADTLSRSYASWYQQKPGQSPVLVIYRDTSRPSGIPERFSGSNSGNTATLTISGTQAMDEADYYCATRPSSGSNFQLFGGGTKLTVL
notes: Variant of humanized M0763; tested in SPR as anti-CD3 Fab x anti-MAGE-A4 scFv bispecific
B2: M1036 (bispecific antibody, V domains shown)
VH: ESQVLESGGGSVQPGGSLRLSCTVSGFSLSNYAMSWVRQAPGKGLEYIGIVSSGGTTYYASWAKGRFTISKDTSKNTVYLQMNSLRAEDTASYYCAKDLYYGPTTQSAFNLWGQGTSVTVSS
VL: SYELTQPPSVSVSPGQTASITCTADTLSRSYASWYQQKPGQSPVLVIYRDTSRPSGIPERFSGSNSGNTATLTISGTQAMDEADYYCATSDGSGSNFQLFGGGTKLTVL
notes: as for B1
B3: M1037 (bispecific antibody, V domains shown)
VH: ESQVLESGGGSVQPGGSLRLSCTVSGFSLSNYAMSWVRQAPGKGLEYIGIVSSGGTTYYASWAKGRFTISKDTSKNTVYLQMNSLRAEDTASYYCAKDLYYGPTTYHDLNLWGQGTSVTVSS
VL: SYELTQPPSVSVSPGQTASITCTADTLSRSYASWYQQKPGQSPVLVIYRDTSRPSGIPERFSGSNSGNTATLTISGTQAMDEADYYCATSDGSGSNFQLFGGGTKLTVL
notes: as for B1
B4: M1038 (bispecific antibody, V domains shown)
VH: ESQVLESGGGSVQPGGSLRLSCTVSGFSLSNYAMSWVRQAPGKGLEYIGIVSSGGTTYYASWAKGRFTISKDTSKNTVYLQMNSLRAEDTASYYCAKNVYYGPTTYSAFNLWGQGTSVTVSS
VL: SYELTQPPSVSVSPGQTASITCTADTLSRSYASWYQQKPGQSPVLVIYRDTSRPSGIPERFSGSNSGNTATLTISGTQAMDEADYYCATSDGSGSNFQLFGGGTKLTVL
notes: as for B1
B5: M1040 (bispecific antibody, V domains shown)
VH: ESQVLESGGGSVQPGGSLRLSCTVSGFSLSNYAMSWVRQAPGKGLEYIGIVSSGGTTYYASWAKGRFTISKDTSKNTVYLQMNSLRAEDTASYYCAKDLYYGPTTYHQLNLWGQGTSVTVSS
VL: SYELTQPPSVSVSPGQTASITCTADTLSRSYASWYQQKPGQSPVLVIYRDTSRPSGIPERFSGSNSGNTATLTISGTQAMDEADYYCATSDGSGSNFQLFGGGTKLTVL
notes: as for B1
B6: M1041 (bispecific antibody, V domains shown)
VH: ESQVLESGGGSVQPGGSLRLSCTVSGFSLSNYAMSWVRQAPGKGLEYIGIVSSGGTTYYASWAKGRFTISKDTSKNTVYLQMNSLRAEDTASYYCAKDLYYGPTTYSAFNLWGQGTSVTVSS
VL: SYELTQPPSVSVSPGQTASITCTADTLSRSYASWYQQKPGQSPVLVIYRDTSRPSGIPERFSGSNSGNTATLTISGTQAMDEADYYCATRPSSGSNFQLFGGGTKLTVL
notes: as for B1
B7: M1051 (bispecific antibody, V domains shown)
VH: ESQVLESGGGSVQPGGSLRLSCTVSGFSLSNYAMSWVRQAPGKGLEYIGIVSSGGRKRYASWAKGRFTISKDTSKNTVYLQMNSLRAEDTASYYCAKDLYYGPTTYSAFNLWGQGTSVTVSS
VL: SYELTQPPSVSVSPGQTASITCTADTLSRSYASWYQQKPGQSPVLVIYRDTSRPSGIPERFSGSNSGNTATLTISGTQAMDEADYYCATSDGSGSNFQLFGGGTKLTVL
notes: as for B1
B8: M1086 (bispecific antibody, V domains shown)
VH: EVQLLESGGGSVQPGGSLRLSCTVSGFSLSNYAMSWVRQAPGKGLEWIGIVSSGGTTYYASWAKGRFTISKDTSKNTVYLQMNSLRAEDTASYYCAKDLYYGPTTYSAFNLWGQGTSVTVSS
VL: SYELTQPPSVSVSPGQTASITCTADTLSRSYASWYQQKPGQSPVLVIYRDTSRPSGIPERFSGSNSGNTATLTISGTQAMDEADYYCATSPSSGSNFQLFGGGTKLTVL
notes: as for B1
B9: M1087 (bispecific antibody, V domains shown)
VH: EVQLLESGGGSVQPGGSLRLSCTVSGFSLSNYAMSWVRQAPGKGLEWIGIVSSGGTTYYASWAKGRFTISKDTSKNTVYLQMNSLRAEDTASYYCAKDLYYGPTTYSAFNLWGQGTSVTVSS
VL: SYELTQPPSVSVSPGQTASITCTADTLSRSYASWYQQKPGQSPVLVIYRDTSRPSGIPERFSGSNSGNTATLTISGTQAMDEADYYCATRDSSGSNFQLFGGGTKLTVL
notes: as for B1
B10: M1088 (bispecific antibody, V domains shown)
VH: EVQLLESGGGSVQPGGSLRLSCTVSGFSLSNYAMSWVRQAPGKGLEWIGIVSSGGTTYYASWAKGRFTISKDTSKNTVYLQMNSLRAEDTASYYCAKDLYYGPTTYSAFNLWGQGTSVTVSS
VL: SYELTQPPSVSVSPGQTASITCTADTLSRSYASWYQQKPGQSPVLVIYRDTSRPSGIPERFSGSNSGNTATLTISGTQAMDEADYYCATRPGSGSNFQLFGGGTKLTVL
notes: as for B1
B11: M1089 (bispecific antibody, V domains shown)
VH: EVQLLESGGGSVQPGGSLRLSCTVSGFSLSNYAMSWVRQAPGKGLEWIGIVSSGGTTYYASWAKGRFTISKDTSKNTVYLQMNSLRAEDTASYYCAKDLYYGPTTYSAFNLWGQGTSVTVSS
VL: SYELTQPPSVSVSPGQTASITCTADTLSRSYASWYQQKPGQSPVLVIYRDTSRPSGIPERFSGSNSGNTATLTISGTQAMDEADYYCATRPASGSNFQLFGGGTKLTVL
notes: as for B1
B12: M1090 (bispecific antibody, V domains shown)
VH: EVQLLESGGGSVQPGGSLRLSCTVSGFSLSNYAMSWVRQAPGKGLEWIGIVSSGGTTYYASWAKGRFTISKDTSKNTVYLQMNSLRAEDTASYYCAKDLYYGPTTYSAFNLWGQGTSVTVSS
VL: SYELTQPPSVSVSPGQTASITCTADTLSRSYASWYQQKPGQSPVLVIYRDTSRPSGIPERFSGSNSGNTATLTISGTQAMDEADYYCATKPSSGSNFQLFGGGTKLTVL
notes: as for B1
B13: M1096 (bispecific antibody, V domains shown)
VH: EVQLLESGGGSVQPGGSLRLSCTVSGFSLSNYAMSWVRQAPGKGLEWIGIVSSGGTTYYASWAKGRFTISKDTSKNTVYLQMNSLRAEDTASYYCAKDLYYGPTTQSAFNLWGQGTSVTVSS
VL: SYELTQPPSVSVSPGQTASITCTADTLSRSYASWYQQKPGQSPVLVIYRDTSRPSGIPERFSGSNSGNTATLTISGTQAMDEADYYCATRPSSGSNFQLFGGGTKLTVL
notes: as for B1
B14: M1097 (bispecific antibody, V domains shown)
VH: EVQLLESGGGSVQPGGSLRLSCTVSGFSLSNYAMSWVRQAPGKGLEWIGIVSSGGTTYYASWAKGRFTISKDTSKNTVYLQMNSLRAEDTASYYCAKNVYYGPTTYSAFNLWGQGTSVTVSS
VL: SYELTQPPSVSVSPGQTASITCTADTLSRSYASWYQQKPGQSPVLVIYRDTSRPSGIPERFSGSNSGNTATLTISGTQAMDEADYYCATRPSSGSNFQLFGGGTKLTVL
notes: as for B1
B15: M1098 (bispecific antibody, V domains shown)
VH: EVQLLESGGGSVQPGGSLRLSCTVSGFSLSNYAMSWVRQAPGKGLEWIGIVSSGGTTYYASWAKGRFTISKDTSKNTVYLQMNSLRAEDTASYYCAKNVYYGPTTQSAFNLWGQGTSVTVSS
VL: SYELTQPPSVSVSPGQTASITCTADTLSRSYASWYQQKPGQSPVLVIYRDTSRPSGIPERFSGSNSGNTATLTISGTQAMDEADYYCATRPSSGSNFQLFGGGTKLTVL
notes: as for B1
B16: M1099 (bispecific antibody, V domains shown)
VH: EVQLLESGGGSVQPGGSLRLSCTVSGFSLSNYAMSWVRQAPGKGLEWIGIVSSGGTTYYASWAKGRFTISKDTSKNTVYLQMNSLRAEDTASYYCAKNVYYGPTTQSAFNLWGQGTSVTVSS
VL: SYELTQPPSVSVSPGQTASITCTADTLSRSYASWYQQKPGQSPVLVIYRDTSRPSGIPERFSGSNSGNTATLTISGTQAMDEADYYCATSDGSGSNFQLFGGGTKLTVL
notes: as for B1
B17: M1100 (bispecific antibody, V domains shown)
VH: EVQLLESGGGSVQPGGSLRLSCTVSGFSLSNYAMSWVRQAPGKGLEWIGIVSSGGTTYYASWAKGRFTISKDTSKNTVYLQMNSLRAEDTASYYCAKDLYYGPTTYHDLNLWGQGTSVTVSS
VL: SYELTQPPSVSVSPGQTASITCTADTLSRSYASWYQQKPGQSPVLVIYRDTSRPSGIPERFSGSNSGNTATLTISGTQAMDEADYYCATRPSSGSNFQLFGGGTKLTVL
notes: as for B1
B18: M1101 (bispecific antibody, V domains shown)
VH: EVQLLESGGGSVQPGGSLRLSCTVSGFSLSNYAMSWVRQAPGKGLEWIGIVSSGGRKRYASWAKGRFTISKDTSKNTVYLQMNSLRAEDTASYYCAKDLYYGPTTYSAFNLWGQGTSVTVSS
VL: SYELTQPPSVSVSPGQTASITCTADTLSRSYASWYQQKPGQSPVLVIYRDTSRPSGIPERFSGSNSGNTATLTISGTQAMDEADYYCATRPSSGSNFQLFGGGTKLTVL
notes: as for B1
B19: M1105 (bispecific antibody, V domains shown)
VH: EVQLLESGGGSVQPGGSLRLSCTVSGFSLSNYAMSWVRQAPGKGLEWIGIVSSGGTTYYASWAKGRFTISKDTSKNTVYLQMNSLRAEDTASYYCAKALYYGPTTYSAFNLWGQGTSVTVSS
VL: SYELTQPPSVSVSPGQTASITCTADTLSRSYASWYQQKPGQSPVLVIYRDTSRPSGIPERFSGSNSGNTATLTISGTQAMDEADYYCATRPSSGSNFQLFGGGTKLTVL
notes: as for B1
B20: M1107 (bispecific antibody, V domains shown)
VH: EVQLLESGGGSVQPGGSLRLSCTVSGFSLSNYAMSWVRQAPGKGLEWIGIVSSGGTTYYASWAKGRFTISKDTSKNTVYLQMNSLRAEDTASYYCAKDLAYGPTTYSAFNLWGQGTSVTVSS
VL: SYELTQPPSVSVSPGQTASITCTADTLSRSYASWYQQKPGQSPVLVIYRDTSRPSGIPERFSGSNSGNTATLTISGTQAMDEADYYCATRPSSGSNFQLFGGGTKLTVL
notes: as for B1
B21: M1108 (bispecific antibody, V domains shown)
VH: EVQLLESGGGSVQPGGSLRLSCTVSGFSLSNYAMSWVRQAPGKGLEWIGIVSSGGTTYYASWAKGRFTISKDTSKNTVYLQMNSLRAEDTASYYCAKDLYAGPTTYSAFNLWGQGTSVTVSS
VL: SYELTQPPSVSVSPGQTASITCTADTLSRSYASWYQQKPGQSPVLVIYRDTSRPSGIPERFSGSNSGNTATLTISGTQAMDEADYYCATRPSSGSNFQLFGGGTKLTVL
notes: as for B1

biological target: T1, HLA-A2/MAGE-A4 complex, recombinant (HLA-A*02:01 extracellular domain, human b2m, MAGE-A4 peptide 230-239 …) (human, UniProt P04439 25-299 at identity 0.94); P61769 21-119); assay: SPR, monovalent
T1 construct: also called MAGE-A4 pMHC; MAGE-A4/HLA-A2 complex

B1 and B2 are within 1.5-fold of each other in Kd: 3.88 nM for the first, 4.9 nM for the second.

Compared with B3, B4 is 9-fold higher in Kd: 0.4 nM for the first, 3.6 nM for the second.

Going from B5 to B6, the Kd falls from 0.45 nM to 0.24 nM (1.9-fold).

B7 and B8 are within 1.5-fold of each other in Kd: 5 nM for the first, 7.02 nM for the second.

Going from B9 to B10, the Kd rises from 0.82 nM to 3.9 nM (4.8-fold). The first binds more tightly here.

Going from B12 to B13, the Kd rises from 1.8 nM to 3.23 nM (1.8-fold). The first binds more tightly here.

Compared with B14, B15 is 1.7-fold higher in Kd: 0.99 nM for the first, 1.73 nM for the second.

Compared with B16, B17 is 3.2-fold lower in Kd: 2.13 nM for the first, 0.66 nM for the second.

Going from B18 to B19, the Kd rises from 1.69 nM to 4.12 nM (2.4-fold).

Going from B20 to B21, the Kd rises from 1.45 nM to 19 nM (13-fold).

With B11 the Kd was 1.34 nM and 0.79 nM.
